IntAct's records for PubMed 21866104

B1: Golgi to ER traffic protein 1 (Saccharomyces cerevisiae), P53192 (parent)
chain: MHWAAAVAIFFIVVTKFLQYTNKYHEKWISKFAPGNELSKKYLAKVKERHELKEFNNSISAQDNYAKWTKNNRKLDSLDKEINNLKDEIQSENKAFQAHLHKLRLLALTVPFFVFKIMYGKTPVYKLSSSTSTLFPTFVSGVWSQGWLYVLLHPLRTISQKWHIMEGKFGASKFDDMALQSVSLGIWVWALMNVINGVEFIVKQLFLTPKMEAPASVETQEEKALDAVDDAIILD
partner: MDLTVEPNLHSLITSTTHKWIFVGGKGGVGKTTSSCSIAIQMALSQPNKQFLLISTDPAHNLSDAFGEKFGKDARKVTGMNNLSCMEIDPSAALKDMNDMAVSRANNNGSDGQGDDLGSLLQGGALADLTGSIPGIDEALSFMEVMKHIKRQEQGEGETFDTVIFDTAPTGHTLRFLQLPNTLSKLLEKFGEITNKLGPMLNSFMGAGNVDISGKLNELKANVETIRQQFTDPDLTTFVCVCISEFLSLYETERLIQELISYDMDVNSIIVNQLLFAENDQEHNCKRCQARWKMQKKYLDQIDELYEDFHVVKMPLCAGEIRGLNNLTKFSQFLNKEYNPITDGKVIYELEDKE
B2: Golgi to ER traffic protein 2 (Saccharomyces cerevisiae), P40056 (parent)
chain: MSELTEAEKRRLLRERRQKKFSNGGASSRLNKITGQASSHLNAESPLDAPSAAKTTPPASVHSATPDIKEDSNVAPQLDLLKQLAAMQGQGTGKSTPQDSSTPDLLSLLSSMNTGMPSAEGTPSFGQAAPAAPINQAALDYHDYLLNRLKAWTILVKWVFFLLPYLYLITRPNSSVWPAYAFTQSAWFAPLRNPSNFTRIFATFEFLSISIYYQLLKNVEHKSKIKNLQDTNKLVKLVSLVPEGVIPVANLKGKLITLLQYWDLLSMLITDISFVLIVLGLLTYL
partner: B1 partner

Variants of: B1
Conditions: with get3_yeast GET3, Q12154

Row | Variant | effect of a mutation on the interaction
1 | R73E | disrupting interaction

Variants of: B2
Conditions: with get3_yeast GET3, Q12154

Row | Variant | effect of a mutation on the interaction
2 | R17E | disrupting interaction
